From publication PMC11809415 (The Journal of Cell Biology, 2025)

Target: F-actin (rabbit skeletal muscle α-actin filaments) (rabbit, UniProt P68135 1-377)
Test: co-sedimentation; 2 µM F-tractinopt-mCherry fusions incubated with F-actin at increasing concentrations for 5 min at room temperature, 120,000 g for 20 min at 4°C; supernatant and pellet on SDS-PAGE, densitometry; Kd by GraphPad Prism
Conditions: both partners purified

B1: F-tractinopt–mCherry fusion (domain or fragment)
chain: APRRSVGELRLLFEARAASAA
notes: rat inositol 1,4,5-trisphosphate 3-kinase A; numbers count on: the 43-residue F-tractin peptide (peptide residue n = kinase residue n+9); source: E. coli BL21-CodonPlus(DE3)-RIPL, purified (Protino Ni-IDA resin)
**Q.** How did the Kd turn out when B1 was run?
**A.** The Kd was 8.5 ± 1.2 µM.
